Changes are numbered by the printed parent chain.
Legend:
XPG FF67,68AA = biological target: T1, XPG FF67,68AA (Homo sapiens, UniProt P28715 1-1186, F67A;F68A); test: EMSA
T1 sequence: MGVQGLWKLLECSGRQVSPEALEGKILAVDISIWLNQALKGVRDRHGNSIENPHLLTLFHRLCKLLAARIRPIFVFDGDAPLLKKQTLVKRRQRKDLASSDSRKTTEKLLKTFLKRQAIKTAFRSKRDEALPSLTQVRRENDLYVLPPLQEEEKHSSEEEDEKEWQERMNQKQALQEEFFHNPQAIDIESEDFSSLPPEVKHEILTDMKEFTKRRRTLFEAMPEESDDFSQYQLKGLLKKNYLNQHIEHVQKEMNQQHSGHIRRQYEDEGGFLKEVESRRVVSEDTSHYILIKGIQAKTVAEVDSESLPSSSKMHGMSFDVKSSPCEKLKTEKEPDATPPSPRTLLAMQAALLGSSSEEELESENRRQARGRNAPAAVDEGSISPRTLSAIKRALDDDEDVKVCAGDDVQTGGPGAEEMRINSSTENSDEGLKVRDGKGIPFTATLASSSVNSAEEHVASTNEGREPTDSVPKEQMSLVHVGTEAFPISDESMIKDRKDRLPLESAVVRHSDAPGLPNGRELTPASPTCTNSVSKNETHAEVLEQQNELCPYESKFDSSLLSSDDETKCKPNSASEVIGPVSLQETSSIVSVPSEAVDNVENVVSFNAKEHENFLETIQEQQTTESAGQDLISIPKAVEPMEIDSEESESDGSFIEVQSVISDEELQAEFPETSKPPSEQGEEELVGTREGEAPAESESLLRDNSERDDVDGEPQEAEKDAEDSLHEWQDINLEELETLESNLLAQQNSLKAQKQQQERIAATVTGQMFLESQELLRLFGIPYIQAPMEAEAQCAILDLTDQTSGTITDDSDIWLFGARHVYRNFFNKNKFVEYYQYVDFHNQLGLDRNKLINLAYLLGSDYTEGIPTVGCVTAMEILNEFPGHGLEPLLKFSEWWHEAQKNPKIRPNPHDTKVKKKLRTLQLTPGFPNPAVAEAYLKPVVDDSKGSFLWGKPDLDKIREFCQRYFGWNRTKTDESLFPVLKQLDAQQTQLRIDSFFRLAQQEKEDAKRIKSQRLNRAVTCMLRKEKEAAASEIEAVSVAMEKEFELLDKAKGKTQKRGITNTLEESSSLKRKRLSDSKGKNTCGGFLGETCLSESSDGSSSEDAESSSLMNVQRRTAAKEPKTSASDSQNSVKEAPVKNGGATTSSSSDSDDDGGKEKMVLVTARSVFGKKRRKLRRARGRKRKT

[1] = biological target: T2, XPG-FLAG (full-length WT) (Homo sapiens, UniProt P28715 1-1186); test: EMSA
T2 sequence: T1 sequence with A67F, A68F

B1: HP15T/C 15-nt bubble DNA (mixed)
DNA 1: CGCGAAGCGGGGCAGACAACGTGGCGCTGTTTTTTTTTTTTTTTGTGTCCTAGCACAGCGTATG
DNA 2: CGCGAAGCGCATACGCTGTGCTAGGACACCCCCCCCCCCCCCCCCAGCGCCACGTTGTCTGCCC
binding result (XPG FF67,68AA): binds
binding result [1]: binds

From paper PMC7321962
